Assay [1] concerns the target T1, GST-cIAP1 (human, UniProt Q13490 1-618).
T1 construct: also called GST-cIAP1 beads; source: bacteria, purified (cloned into pGEX4T-1)
Nature of the assay: pull-down; His-tag pull-down: eIF4E-6His beads pre-incubated with GST-cIAP1 (also in increasing amounts), then incubated with GST-CHIP or GST alone; WB with anti-GST antibody. The note with it: both partners purified.

Assay [2] has as its target T1, GST-cIAP1. Kind of assay: pull-down; GST pull-down: GST or GST fusion protein on glutathione beads incubated with 6His-tagged protein in 100 mM Tris pH 8.0, 100 mM NaCl, 2 mM EDTA, 5% glycerol, 2 h at 4 °C; WB with anti-His antibody. The note with it: both partners purified.

The record followed here is article PMC5575267, “A novel function of cIAP1 as a mediator of CHIP-driven eIF4E regulation” (Scientific Reports, 2017).

T1 sequence (Q13490 whole entry): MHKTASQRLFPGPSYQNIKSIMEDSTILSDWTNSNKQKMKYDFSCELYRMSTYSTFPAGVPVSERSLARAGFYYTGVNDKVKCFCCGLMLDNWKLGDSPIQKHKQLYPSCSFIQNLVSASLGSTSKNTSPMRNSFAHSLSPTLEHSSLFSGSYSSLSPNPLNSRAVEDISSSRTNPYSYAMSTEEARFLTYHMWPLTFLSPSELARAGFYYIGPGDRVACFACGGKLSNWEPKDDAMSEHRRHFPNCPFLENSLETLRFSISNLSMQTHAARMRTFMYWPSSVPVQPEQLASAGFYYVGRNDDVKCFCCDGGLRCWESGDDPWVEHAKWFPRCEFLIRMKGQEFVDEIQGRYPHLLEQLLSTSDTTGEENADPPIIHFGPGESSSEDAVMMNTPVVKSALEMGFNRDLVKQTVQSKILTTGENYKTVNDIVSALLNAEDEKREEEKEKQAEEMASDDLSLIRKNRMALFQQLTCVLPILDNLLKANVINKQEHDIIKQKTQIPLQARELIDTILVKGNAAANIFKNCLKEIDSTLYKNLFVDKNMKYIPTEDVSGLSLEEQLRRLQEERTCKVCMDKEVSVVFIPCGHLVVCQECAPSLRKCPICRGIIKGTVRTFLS

B1: GST-CHIP WT (natural protein, UniProt Q9UNE7 1-303, looked up)
chain: MKGKEEKEGGARLGAGGGSPEKSPSAQELKEQGNRLFVGRKYPEAAACYGRAITRNPLVAVYYTNRALCYLKMQQHEQALADCRRALELDGQSVKAHFFLGQCQLEMESYDEAIANLQRAYSLAKEQRLNFGDDIPSALRIAKKKRWNSIEERRIHQESELHSYLSRLIAAERERELEECQRNHEGDEDDSHVRAQQACIEAKHDKYMADMDELFSQVDEKRKKRDIPDYLCGKISFELMREPCITPSGITYDRKDIEEHLQRVGHFDPVTRSPLTQEQLIPNLAMKEVIDAFISENGWVEDY
notes: source: bacteria, purified (cloned into pGEX4T-1)
Take B1: the binding result with GST-cIAP1 [1] was “binds”.

B2: CHIP WT-6His (natural protein, UniProt Q9UNE7 1-303, looked up)
chain: MKGKEEKEGGARLGAGGGSPEKSPSAQELKEQGNRLFVGRKYPEAAACYGRAITRNPLVAVYYTNRALCYLKMQQHEQALADCRRALELDGQSVKAHFFLGQCQLEMESYDEAIANLQRAYSLAKEQRLNFGDDIPSALRIAKKKRWNSIEERRIHQESELHSYLSRLIAAERERELEECQRNHEGDEDDSHVRAQQACIEAKHDKYMADMDELFSQVDEKRKKRDIPDYLCGKISFELMREPCITPSGITYDRKDIEEHLQRVGHFDPVTRSPLTQEQLIPNLAMKEVIDAFISENGWVEDY
notes: also called CHIP-6His (WT); source: bacteria, purified (cloned into pET 23a)
On to B2, for which the binding result with GST-cIAP1 [2] is listed as “binds”.

B3: CHIP K30A-6His (natural protein, UniProt Q9UNE7 1-303, looked up)
chain: MKGKEEKEGGARLGAGGGSPEKSPSAQELAEQGNRLFVGRKYPEAAACYGRAITRNPLVAVYYTNRALCYLKMQQHEQALADCRRALELDGQSVKAHFFLGQCQLEMESYDEAIANLQRAYSLAKEQRLNFGDDIPSALRIAKKKRWNSIEERRIHQESELHSYLSRLIAAERERELEECQRNHEGDEDDSHVRAQQACIEAKHDKYMADMDELFSQVDEKRKKRDIPDYLCGKISFELMREPCITPSGITYDRKDIEEHLQRVGHFDPVTRSPLTQEQLIPNLAMKEVIDAFISENGWVEDY
notes: also called CHIP-6His (K30A); source: bacteria, purified (cloned into pET 23a)
Regarding B3, the binding result in the assay with GST-cIAP1 [2] is on record as “binds”.
